Source: publication PMC5379210 (Scientific Reports, 2017)

Assays:
[1] = molecular target: S. cerevisiae Gpi8 (23-337aa) (S. cerevisiae) (UniProt P49018); test: SEC; single purified protein on Superdex 200 10/300 GL, 20 mM Tris-HCl pH 8, 150 mM NaCl, purified without reducing agent (non-reducing) or with 2.5 mM DTT; re-runs of peaks; dimer to monomers
[2] = molecular target: S. cerevisiae Gpi8 (23-306aa) C85A (S. cerevisiae) (UniProt P49018); test: SEC-MALS; C85A mutant under reducing conditions
[3] = molecular target: S. cerevisiae Gpi8 (23-306aa) C85A (S. cerevisiae) (UniProt P49018); test: SEC; single purified protein on Superdex 200 10/300 GL, 20 mM Tris-HCl pH 8, 150 mM NaCl, purified without reducing agent (non-reducing) or with 2.5 mM DTT; re-runs of peaks; dimer to monomers
[4] = molecular target: the molecule itself; test: as above

Row | Molecule | stoichiometry N [4] | also measured
1 | S. cerevisiae Gpi8 (23-337aa) (from UniProt P49018 23-337) (domain or fragment) |  | stoichiometry N [1]: 2
2 | S. cerevisiae Gpi8 (23-306aa) C85A (from UniProt P49018 23-306) (domain or fragment) |  | stoichiometry N [2]: 2; stoichiometry N [3]: 2
3 | S. cerevisiae Gpi8 (23-379aa) C373A (domain or fragment, UniProt P49018 23-379, looked up, S. cerevisiae Gpi8, full-length luminal construct, residues 23-379, with C373A; also called C373A mutant) NNTDAAHEVIATNTNNWAVLVSTSRFWFNYRHMANVLSMYRTVKRLGIPDSQIILMLSDDVACNSRNLFPGSVFNNKDHAIDLYGDSVEVDYRGYEVTVENFIRLLTDRWTEDHPKSKRLLTDENSNIFIYMTGHGGDDFLKFQDAEEIASEDIADAFQQMYEKKRYNEIFFMIDTCQANTMYSKFYSPNILAVGSSEMDESSYSHHSDVEIGVAVIDRFTYYCLDFLEQIDKNSTLTLQDLFDSFTFEKIHSHVGVRTDLFDRNPSEVLITDFFANVQNVIPDDSKPLSVSHYHHYKDHIDTAQYELNNNVLDLALETYRKNNQSSKIEKKIKDIKSTSVLDVDIDSNEAFFTSFK | 2 | 
4 | S. cerevisiae Gpi8 (23-306aa), caspase-like domain, insect cell expressed (N-glycosylated) (domain or fragment, UniProt P49018 23-306, looked up, N-glycosylated (two predicted N-glycosylation sites in 23-306), The construct has an N-terminal gp67 signal peptide for secretion (pFastBac-dual); Runs as a disulfide-linked dimer; also called insect cell expressed Gpi8; not shown: 6xHis, C-terminal, kept) NNTDAAHEVIATNTNNWAVLVSTSRFWFNYRHMANVLSMYRTVKRLGIPDSQIILMLSDDVACNSRNLFPGSVFNNKDHAIDLYGDSVEVDYRGYEVTVENFIRLLTDRWTEDHPKSKRLLTDENSNIFIYMTGHGGDDFLKFQDAEEIASEDIADAFQQMYEKKRYNEIFFMIDTCQANTMYSKFYSPNILAVGSSEMDESSYSHHSDVEIGVAVIDRFTYYCLDFLEQIDKNSTLTLQDLFDSFTFEKIHSHVGVRTDLFDRNPSEVLITDFFANVQNVIPD | 2 | 
5 | S. cerevisiae Gpi8 (23-306aa), E. coli BL21 expressed (domain or fragment, UniProt P49018 23-306, looked up, Cloned into NdeI-XhoI sites of pET26a (so in the source); also called E. coli expressed Gpi8) NNTDAAHEVIATNTNNWAVLVSTSRFWFNYRHMANVLSMYRTVKRLGIPDSQIILMLSDDVACNSRNLFPGSVFNNKDHAIDLYGDSVEVDYRGYEVTVENFIRLLTDRWTEDHPKSKRLLTDENSNIFIYMTGHGGDDFLKFQDAEEIASEDIADAFQQMYEKKRYNEIFFMIDTCQANTMYSKFYSPNILAVGSSEMDESSYSHHSDVEIGVAVIDRFTYYCLDFLEQIDKNSTLTLQDLFDSFTFEKIHSHVGVRTDLFDRNPSEVLITDFFANVQNVIPD | 2 | 
6 | S. cerevisiae Gpi8 (23-306aa), insect cell expressed in the presence of tunicamycin (nonglycosylated) (domain or fragment, UniProt P49018 23-306, looked up, N-terminal gp67 signal peptide in the construct; also called nonglycosylated Gpi8; insect cell expressed Gpi8 in the presence of tunicamycin) NNTDAAHEVIATNTNNWAVLVSTSRFWFNYRHMANVLSMYRTVKRLGIPDSQIILMLSDDVACNSRNLFPGSVFNNKDHAIDLYGDSVEVDYRGYEVTVENFIRLLTDRWTEDHPKSKRLLTDENSNIFIYMTGHGGDDFLKFQDAEEIASEDIADAFQQMYEKKRYNEIFFMIDTCQANTMYSKFYSPNILAVGSSEMDESSYSHHSDVEIGVAVIDRFTYYCLDFLEQIDKNSTLTLQDLFDSFTFEKIHSHVGVRTDLFDRNPSEVLITDFFANVQNVIPD | 2 | 
7 | S. cerevisiae Gpi8 (23-306aa), E. coli SHuffle expressed (domain or fragment, UniProt P49018 23-306, looked up, Same construct as m12, other E. coli strain (constitutively expresses DsbC); also called E. coli Shuffle-expressed Gpi8) NNTDAAHEVIATNTNNWAVLVSTSRFWFNYRHMANVLSMYRTVKRLGIPDSQIILMLSDDVACNSRNLFPGSVFNNKDHAIDLYGDSVEVDYRGYEVTVENFIRLLTDRWTEDHPKSKRLLTDENSNIFIYMTGHGGDDFLKFQDAEEIASEDIADAFQQMYEKKRYNEIFFMIDTCQANTMYSKFYSPNILAVGSSEMDESSYSHHSDVEIGVAVIDRFTYYCLDFLEQIDKNSTLTLQDLFDSFTFEKIHSHVGVRTDLFDRNPSEVLITDFFANVQNVIPD | 2 | 
8 | S. cerevisiae Gpi8 (23-306aa) C199A (domain or fragment, UniProt P49018 23-306, looked up) NNTDAAHEVIATNTNNWAVLVSTSRFWFNYRHMANVLSMYRTVKRLGIPDSQIILMLSDDVACNSRNLFPGSVFNNKDHAIDLYGDSVEVDYRGYEVTVENFIRLLTDRWTEDHPKSKRLLTDENSNIFIYMTGHGGDDFLKFQDAEEIASEDIADAFQQMYEKKRYNEIFFMIDTAQANTMYSKFYSPNILAVGSSEMDESSYSHHSDVEIGVAVIDRFTYYCLDFLEQIDKNSTLTLQDLFDSFTFEKIHSHVGVRTDLFDRNPSEVLITDFFANVQNVIPD | 2 | 
9 | S. cerevisiae Gpi8 (23-306aa) C246A (domain or fragment, UniProt P49018 23-306, looked up, the methods print Cys244Ala) NNTDAAHEVIATNTNNWAVLVSTSRFWFNYRHMANVLSMYRTVKRLGIPDSQIILMLSDDVACNSRNLFPGSVFNNKDHAIDLYGDSVEVDYRGYEVTVENFIRLLTDRWTEDHPKSKRLLTDENSNIFIYMTGHGGDDFLKFQDAEEIASEDIADAFQQMYEKKRYNEIFFMIDTCQANTMYSKFYSPNILAVGSSEMDESSYSHHSDVEIGVAVIDRFTYYALDFLEQIDKNSTLTLQDLFDSFTFEKIHSHVGVRTDLFDRNPSEVLITDFFANVQNVIPD | 2 | 
10 | S. cerevisiae Gpi8 (23-359aa) (domain or fragment, UniProt P49018 23-359, looked up, S. cerevisiae Gpi8, C-terminal truncation of the luminal domain, residues 23-359; also called S. cerevisiae Gpi8 (23-359aa)^BL21) NNTDAAHEVIATNTNNWAVLVSTSRFWFNYRHMANVLSMYRTVKRLGIPDSQIILMLSDDVACNSRNLFPGSVFNNKDHAIDLYGDSVEVDYRGYEVTVENFIRLLTDRWTEDHPKSKRLLTDENSNIFIYMTGHGGDDFLKFQDAEEIASEDIADAFQQMYEKKRYNEIFFMIDTCQANTMYSKFYSPNILAVGSSEMDESSYSHHSDVEIGVAVIDRFTYYCLDFLEQIDKNSTLTLQDLFDSFTFEKIHSHVGVRTDLFDRNPSEVLITDFFANVQNVIPDDSKPLSVSHYHHYKDHIDTAQYELNNNVLDLALETYRKNNQSSKIEKKIKDIK | 2 | 
